The source of these data is publication PMC9922279.

The assay concerns the target Trimeric polymerase with PB2 71-73A (PB1 WT, PB2 71-73A, strep-tagged PA). Conditions: parent: est. 1.0; read off a plot.

With “Trimeric influenza A virus A/WSN/1933 (H1N1) polymerase (PB1 wild type, PB2, HA-tagged PA) (from UniProt P15659) PB2 71-73A”, the ratio to parent is 0.5 n-fold of WT.
